In patent US8629107B2, “Genes and proteins associated with angiogenesis and uses thereof” (National Jewish Health, priority 2005, dated 2014):
Entries after “also recorded” stand apart in the source; their conditions may differ.

Experiments:
MB114 cells = experiment: angiogenic sprouting in rat tail collagen matrices; format: cell-based, murine
Experimental: (§1) The effect putative angiogenic agents had on MB114 cell activities were determined as follows: (i) cell proliferation using a [^3H]thymidine incorporation assay as described (Albig et al, 2006; Albig and Schiemann, 2004; Albig and Schiemann, 2005); (ii) cell invasion through Matrigel matrices using a modified Boyden-chamber assay as described (Albig et al, 2006; Albig and Schiemann, 2004; Albig and Schiemann, 2005); (iii) p38 MAPK phosphorylation using immunoblot analyses as described (Albig et al, 2006; Albig and Schiemann, 2004; Albig and Schiemann, 2005); (iv) angiogenic sprouting in rat tail collagen matrices as described (Albig et al, 2006; Albig and Schiemann, 2004); and (v) Hes1- and SBE-driven luciferase reporter gene assays as described (Albig et al, 2006; Albig and Schiemann, 2004; Albig and Schiemann, 2005).
Finally, it was determined whether expression of these putative angiogenic factors could effect the angiogenic sprouting of quiescent MB114 cells monolayers. MB114 cells expressing either GFP or various putative angiogenic agents were grown to confluency, and subsequently were overlaid with rat tail collagen matrices. Angiogenic sprouting by quiescent EC monolayers was stimulated by inclusion of 10% FBS and allowed to proceed for 5 days. The quantity of invading angiogenic sprouts was determined by manual counting under a light microscope.
Based on the findings described in the Examples above, the inventors hypothesized that MAGP-2 promotes angiogenesis by antagonizing Notch1 signaling. To test this hypothesis, it was first determined whether inhibiting Notch signaling in MB114 cells would enhance their angiogenic sprouting. In doing so, MB114 cells were transiently transfected with the Hes1-luciferase reporter gene (and pCMV-β-gal cDNA as control), and subsequently were treated overnight with or without the highly specific gamma-secretase inhibitor, DAPT (Sastre et al, 2001), which inhibits S3-mediated cleavage of Notch1 and, consequently, NICD-mediated induction of Hes1 expression. Afterward, luciferase and β-gal activities were determined. […] In this experiment, quiescent MB114 cell monolayers were overlaid with rat tail collagen matrices, and were induced to form angiogenic sprouts by addition of 10% FBS supplemented with or without DAPT (10 μM). Five days later the number of invading angiogenic spouts were quantified by manual counting on a light microscope. Based on these findings, the inventors conclude that Notch activation functions in mediating angiostasis in MB114 cells. […] Collectively, these findings indicate that Notch1 signaling antagonizes angiogenic sprouting in MB114 cells, and that downregulation of Notch1 signaling components is necessary for angiogenesis activation in MB114 cells.
Having shown that Notch1 signaling mediates angiostasis in MB114 cells, the inventors next asked whether MAGP-2 promotes angiogenesis in MB114 cells via its ability to antagonize Notch signaling. To do so, MAGP-2-expressing MB114 cells were engineered to constitutively express active Notch1 NICD fragment in an attempt to overcome the block of Notch processing mediated by MAGP-2. More particularly, GFP-, MAGP-2-, and MAGP-2/N1ICD-expressing MB114 cells were transiently transfected with pHes1-luciferase and pCMV-β-gal cDNAs. Luciferase and β-gal activities were determined 48 h post-transfection. As the inventors observed previously, MAGP-2 expression reduced Hes1-luciferase activity in MB114 cells (FIG. 5C), a reaction that was bypassed by co-expression of NICD in these cells (FIG. 5C). […] In this experiment, quiescent monolayers of GFP-, MAGP-2-, and MAGP-2/N1ICD-expressing MB114 cells were overlaid with rat tail collagen matrices and incubated in the absence or presence of 10% FBS for 5 days. Afterward, the number of invading angiogenic sprouts were determined by manual counting under a light microscope.

[1] = tested on: Hes1 promoter (Notch1 signaling); experiment: Hes1-driven luciferase reporter gene assay in MB114 cells; format: cell-based, murine
Experimental: as §1
MAGP-2 can interact physically with Notch1 and its ligand, Jagged-1 (Miyamoto et al, 2006; Nehring et al, 2005), resulting in the ectodomain shedding of both molecules from the cell surface. Notch signaling also plays an essential role in regulating normal vessel development and angiogenesis in mammals (Leong and Karsan, 2005; Shawber and Kitajewski, 2004). Given these two facts, the inventors hypothesized that MAGP-2 promotes angiogenesis by modulating Notch1 signaling. To test this hypothesis, first measured were changes in luciferase expression driven by a Hes1-luciferase reporter gene whose expression is induced by Notch1 activation (Iso et al, 2003). MB114 and HUVEC cells were transiently transfected either with pHes1-luciferase, pCMV-β-gal, and MAGP-2 cDNAs, or with pHes1-luciferase and pCMV-β-gal cDNAs and subsequently stimulated with rMAGP-2 (1 or 5 mg/ml). Afterward, luciferase and β-gal activities contained in detergent-solubilized cell extracts were measured. In addition, GFP- and MAGP-2-expressing MB114 cells were transiently transfected with pHes1-luciferase and pCMV-β-gal cDNAs, together with or without Jagged-1 cDNA as indicated. Afterward, luciferase and β-gal activities were measured as above.
To further investigate the impact of MAGP-2 on Notch1 processing and NICD accumulation, the inventors took advantage of recent findings showing that the ability of TGF-β to induce Hes1 promoter activity requires Smad3 to interact physically with NICD (Blokzijl et al, 2003), a reaction that is dispensable for canonical Smad3-mediated signaling stimulated by TGF-β (Blokzijl et al, 2003). It was therefore reasoned that the ability of MAGP-2 to inhibit NICD production in ECs would reduce the capacity of TGF-β to induce luciferase expression driven by the Hes1 promoter, but not that driven by the synthetic Smad2/3-binding element (SBE). GFP- and MAGP-2-expressing MB114 cells were transiently transfected with either pHes1- or pSBE-luciferase, both together with pCMV-β-gal as indicated in FIG. 4B. Afterward, the resulting transfectants were stimulated overnight with increasing concentrations of TGF-β1 (0-5 ng/ml).
Based on the findings described in the Examples above, the inventors hypothesized that MAGP-2 promotes angiogenesis by antagonizing Notch1 signaling. To test this hypothesis, it was first determined whether inhibiting Notch signaling in MB114 cells would enhance their angiogenic sprouting. […] Afterward, luciferase and β-gal activities were determined. […]

[2] = tested on: Hes1 promoter (Notch1 signaling); experiment: Hes1-driven luciferase reporter gene assay in HUVEC cells; format: cell-based, human; parameters: dose or concentration left out as unconfirmed
Experimental: as §1
MAGP-2 can interact physically with Notch1 and its ligand, Jagged-1 (Miyamoto et al, 2006; Nehring et al, 2005), resulting in the ectodomain shedding of both molecules from the cell surface. […] To test this hypothesis, first measured were changes in luciferase expression driven by a Hes1-luciferase reporter gene whose expression is induced by Notch1 activation (Iso et al, 2003). […] Afterward, luciferase and β-gal activities contained in detergent-solubilized cell extracts were measured. […] Afterward, luciferase and β-gal activities were measured as above. […]

Molecule	angiogenic sprouting of quiescent MB114 cell monolayers (MB114 cells; MB114 cells stably expressing the transgene vs GFP, 10% FBS, 5 days)	ability of Jagged-1 to induce Hes1-luciferase activity ([1]; MAGP-2-expressing vs GFP-expressing MB114 cells, with Jagged-1 cDNA)	ability of TGF-β to stimulate Hes1-luciferase activity ([1]; MAGP-2-expressing vs GFP-expressing MB114 cells, TGF-β1 0-5 ng/ml overnight)	Hes1-driven luciferase activity ([1]; MAGP-2 expression in MB114 cells)	Hes1-driven luciferase activity ([2]; MAGP-2 expression in HUVEC cells)	angiogenic sprouting of quiescent MB114 cell monolayers (MB114 cells; purified recombinant protein added, 1 μg/ml)	Hes1-driven luciferase activity ([1]; MB114 cells stimulated with recombinant protein, 1 or 5 mg/ml)	Hes1-driven luciferase activity ([2]; HUVEC cells stimulated with recombinant protein)
MAGP-2: secreted glycoprotein (25 kDa); stably expressed in MB114 cells by bicistronic retroviral transduction, Myc-His tagged (protein, left off: small tags and cut ends, secreted glycoprotein (25 kDa); stably expressed in MB114 cells by bicistronic retroviral transduction, Myc-His tagged) QRGDDVPETFTDDPNLVNDPSTDDTALADITPSTDDLAGDKNATAECRDEKFACTRLYSVHRPVRQCVHQSCFTSLRRMYIINNEICSRLVCKEHEAMKDELCRQMAGLPPRRLRRSNYFRLPPCENMNLQRPDGL	significantly increased	abrogated	significantly decreased	repressed; also recorded: reduced	repressed	–	–	–
rMAGP-2: recombinant FLAG-tagged MAGP-2 purified from bacterial cell extracts by anti-FLAG chromatography (protein, UniProt Q9QZJ6 29-164, looked up, FLAG tag, recombinant FLAG-tagged MAGP-2 purified from bacterial cell extracts by anti-FLAG chromatography) Microfibrillar-associated …: QRGDDVPETFTDDPNLVNDPSTDDTALADITPSTDDLAGDKNATAECRDEKFACTRLYSVHRPVRQCVHQSCFTSLRRMYIINNEICSRLVCKEHEAMKDELCRQMAGLPPRRLRRSNYFRLPPCENMNLQRPDGL	–	–	–	–	–	stimulated	repressed	repressed
